Data as given in publication PMC6480920, “A Combined ELONA-(RT)qPCR Approach for Characterizing DNA and RNA Aptamers Selected against PCBP-2”.

B1: 05DS10-22 (ssDNA)
DNA: GCGGATCCAGACTGGTGTCAATGGTACTCTTCATTGTAGTCGCTTTGTTTATTAGCCGGCCCTAAAGACAAGCTTC
B2: 05DS10-21 (ssDNA)
DNA: GCGGATCCAGACTGGTGTGGAGGTTAGCCGAAACACGTATACGCGTATTTATCCTCGGGCCCTAAAGACAAGCTTC
B3: 05DS10-01 (ssDNA)
DNA: GCGGATCCAGACTGGTGTGCACAGCACATGCATTACTGCGGTAATCCGTGTCCTTTGTGCCCTAAAGACAAGCTTC
B4: 05RS10-30 (ssRNA)
RNA: GGGGCGGAUCCAGACUGGUGUUUCCGCAAAGAGUGGUCUUUGUUAAUGUCAGGUUUCUUCGGCCCUAAAGACAAGCUUC
B5: 05RS10-34 (ssRNA)
RNA: GGGGCGGAUCCAGACUGGUGUGAACACAGACGAGAACGUUGCAUAAAACCGCUUUUUUGGGCCCUAAAGACAAGCUUC
B6: 05RS10-04 (ssRNA)
RNA: GGGGCGGAUCCAGACUGGUGUCAUUUAGCAAAAACACUUGUAUAAUUCAAGUCGAUGUUGGGCCCUAAAGACAAGCUUC
B7: 05RS10-19 (ssRNA)
RNA: GGGGCGGAUCCAGACUGGUGUAAUCGAUCUUGCAUGCUAUUCGUCAAUCAACUCUUGCCGGCCCUAAAGACAAGCUUC
B8: 05RS10-18 (ssRNA)
RNA: GGGGCGGAUCCAGACUGGUGUUUAAUUAUGUAAGUAAAUUGUUUUUUGACUCUCGCAUUGGGCCCUAAAGACAAGCUUC
B9: 05RS10-11 (ssRNA)
RNA: GGGGCGGAUCCAGACUGGUGUGAUCAUAUUAAUAAGACGCUUCCAGGUACGUCGCUGUUGGGCCCUAAAGACAAGCUUC
B10: 05DS10-05 (ssDNA)
DNA: GCGGATCCAGACTGGTGTACCTGTTAGCAAGAGTTTATTATGTAAAGATATCCGTTGGGCCCTAAAGACAAGCTTC
B11: 05DS10-26 (ssDNA)
DNA: GCGGATCCAGACTGGTGTGGGAATGTTGTTTATGTATTTGTTCTGAGCTCTACCTTTGCCCTAAAGACAAGCTTC
B12: 05DS10-18 (ssDNA)
DNA: GCGGATCCAGACTGGTGTCCTATCTATAATTTTGCAGTCCACGTTTCTCTTGTGTGTGCCCTAAAGACAAGCTTC
B13: 05RS10-32 (ssRNA)
RNA: GGGGCGGAUCCAGACUGGUGUCUUCCUGCUUGUGUUAUUUUCUAUUGUCGUGCGUGUUCGGGCCCUAAAGACAAGCUUC
B14: 05RS10-32-32P (ssRNA)
RNA: B13 RNA
B15: 05DS10-12 (ssDNA)
DNA: GCGGATCCAGACTGGTGTGCAGGTATGCCGGATCATGTCGTGAAAGTATCCATTTCTCGCCCTAAAGACAAGCTTC
B16: 05RS10-09 (ssRNA)
RNA: GGGGCGGAUCCAGACUGGUGUACACGGUGUUUAGUAGUUUAAUGAAUCUUUUAGUUCUUGGGCCCUAAAGACAAGCUUC
B17: 05DS10-02 (= 05DS10-03) (ssDNA)
DNA: GCGGATCCAGACTGGTGTACTGGGCTAGTTGCCTCTGCAGATTAGATGATGACAGTGGCCCTAAAGACAAGCTTC

Columns and labels:
[1] = target: T1, PCBP-2 (poly(C)-binding protein 2) (UniProt Q15366 1-365); assay: ELONA-qPCR; Kd in range 8.4-89.9 nM, value in figure; ELONA: 100 mM HEPES pH 7.4, 100 mM NaCl, 6 mM MgCl2, 37 °C, 60 min, PCBP-2 (10 pmol) immobilized on Cu2+ plates; EMSA: 40 mM Tris-HCl pH 7.5, 250 mM NaCl, 0.1%; details: protein: recombinant; tags: N-terminal 6xHis
[2] = target: T1, PCBP-2 (poly(C)-binding protein 2); assay: ELONA-qPCR; 6 mM Mg2+; ELONA: 100 mM HEPES pH 7.4, 100 mM NaCl, 6 mM MgCl2, 37 °C, 60 min, PCBP-2 (10 pmol) immobilized on Cu2+ plates; EMSA: 40 mM Tris-HCl pH 7.5, 250 mM NaCl, 0.1%; details: protein: recombinant; tags: N-terminal 6xHis
[3] = target: T1, PCBP-2 (poly(C)-binding protein 2); assay: ELONA-RTqPCR; Kd in range 24.1-276.5 nM, value in figure; ELONA: 100 mM HEPES pH 7.4, 100 mM NaCl, 6 mM MgCl2, 37 °C, 60 min, PCBP-2 (10 pmol) immobilized on Cu2+ plates; EMSA: 40 mM Tris-HCl pH 7.5, 250 mM NaCl, 0.1%; details: protein: recombinant; tags: N-terminal 6xHis
[4] = target: T1, PCBP-2 (poly(C)-binding protein 2); assay: ELONA-qPCR; Kd in range 8.4-89.9 nM, value in figure; highest DNA Bmax; ELONA: 100 mM HEPES pH 7.4, 100 mM NaCl, 6 mM MgCl2, 37 °C, 60 min, PCBP-2 (10 pmol) immobilized on Cu2+ plates; EMSA: 40 mM Tris-HCl pH 7.5, 250 mM NaCl, 0.1%; details: protein: recombinant; tags: N-terminal 6xHis
[5] = target: T1, PCBP-2 (poly(C)-binding protein 2); assay: ELONA-RTqPCR; Kd in range 24.1-276.5 nM, value in figure; highest RNA Bmax; ELONA: 100 mM HEPES pH 7.4, 100 mM NaCl, 6 mM MgCl2, 37 °C, 60 min, PCBP-2 (10 pmol) immobilized on Cu2+ plates; EMSA: 40 mM Tris-HCl pH 7.5, 250 mM NaCl, 0.1%; details: protein: recombinant; tags: N-terminal 6xHis
[6] = target: T1, PCBP-2 (poly(C)-binding protein 2); assay: EMSA; 0.1-27.1 nM protein; two retarded complexes; ELONA: 100 mM HEPES pH 7.4, 100 mM NaCl, 6 mM MgCl2, 37 °C, 60 min, PCBP-2 (10 pmol) immobilized on Cu2+ plates; EMSA: 40 mM Tris-HCl pH 7.5, 250 mM NaCl, 0.1%; details: protein: recombinant; tags: N-terminal 6xHis; label: 32P-CTP uniform
[7] = target: T1, PCBP-2 (poly(C)-binding protein 2); assay: ELONA-RTqPCR; 6 mM Mg2+; ELONA: 100 mM HEPES pH 7.4, 100 mM NaCl, 6 mM MgCl2, 37 °C, 60 min, PCBP-2 (10 pmol) immobilized on Cu2+ plates; EMSA: 40 mM Tris-HCl pH 7.5, 250 mM NaCl, 0.1%; details: protein: recombinant; tags: N-terminal 6xHis

T1 sequence (Q15366 whole entry): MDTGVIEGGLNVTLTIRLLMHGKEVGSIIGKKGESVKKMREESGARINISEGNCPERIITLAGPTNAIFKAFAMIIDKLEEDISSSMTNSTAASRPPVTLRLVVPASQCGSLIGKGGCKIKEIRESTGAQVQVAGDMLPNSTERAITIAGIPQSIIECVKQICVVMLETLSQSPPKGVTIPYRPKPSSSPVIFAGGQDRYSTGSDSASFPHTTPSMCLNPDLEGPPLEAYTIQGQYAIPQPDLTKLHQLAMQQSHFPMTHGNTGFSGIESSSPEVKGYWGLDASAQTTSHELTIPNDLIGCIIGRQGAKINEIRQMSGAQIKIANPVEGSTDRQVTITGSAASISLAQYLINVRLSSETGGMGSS

| Binder | binding result [1] | binding result [3] | further results |
| --- | --- | --- | --- |
| B1 | binds |  |  |
| B2 |  |  | Kd [2]: 8.4 nM |
| B3 | binds |  |  |
| B4 |  | binds |  |
| B5 |  | binds |  |
| B6 |  | binds |  |
| B7 |  | binds |  |
| B8 |  | binds |  |
| B9 |  | binds |  |
| B10 |  |  | binding result [4]: binds |
| B11 | binds |  |  |
| B12 | binds |  |  |
| B13 |  |  | binding result [5]: binds |
| B14 |  |  | binding result [6]: binds |
| B15 | binds |  |  |
| B16 |  |  | Kd [7]: 24.1 nM |
| B17 | binds |  |  |
